{"source": "paper PMC2935283", "about": "“Molecular recognition between Escherichia coli enolase and ribonuclease E” (Acta Crystallographica Section D: Biological Crystallography, 2010)", "proteins": {"B1": {"name": "Escherichia coli enolase (enzyme, E. coli)", "chain": "MSKIVKIIGREIIDSRGNPTVEAEVHLEGGFVGMAAAPSGASTGSREALELRDGDKSRFLGKGVTKAVAAVNGPIAQALIGKDAKDQAGIDKIMIDLDGTENKSKFGANAILAVSLANAKAAAAAKGMPLYEHIAELNGTPGKYSMPVPMMNIINGGEHADNNVDIQEFMIQPVGAKTVKEAIRMGSEVFHHLAKVLKAKGMNTAVGDEGGYAPNLGSNAEALAVIAEAVKAAGYELGKDITLAMDCAASEFYKDGKYVLAGEGNKAFTSEEFTHFLEELTKQYPIVSIEDGLDESDWDGFAYQTKVLGDKIQLVGDDLFVTNTKILKEGIEKGIANSILIKFNQIGSLTETLAAIKMAKDAGYTAVISHRSGETEDATIADLAVGTAAGQIKTGSMSRSDRVAKYNQLIRIEEALGEKAPYNGRKEIKGQA", "notes": "enolase (EC 4.2.1.11), E. coli; overexpressed from pET11a; Purified as described in Kuhnel & Luisi, 2001; Homodimer in the crystal and by nondissociating mass spectrometry; also called enolase dimer; dimeric enolase; source: E. coli BL21 (DE3), pET11a vector, purified"}}, "biological_target": "the molecule itself", "assay": "native MS; enolase mixed with the microdomain in a 1:1.5 molar ratio, room temperature, 20 min; nanoflow ESI, tandem nondissociating QTOF-MS/MS"}
{"protein": "B1", "values": [{"measurement": "stoichiometry N", "result": 2}]}
